# How the values were obtained:
# [1] = target: human FcγRIIIa (FIG. 41 data; allotype not given) (human) (UniProt P08637); assay: AlphaScreen competition
# [2] = target: FcγRIIIa on human PBMCs expressing heterozygous V158/F158 FcγRIIIa (human) (UniProt P08637); assay: cell-based or functional assay
# Sequence of FcγRIIIa on human PBMCs expressing heterozygous V158/F158 FcγRIIIa (human) (P08637 17-254): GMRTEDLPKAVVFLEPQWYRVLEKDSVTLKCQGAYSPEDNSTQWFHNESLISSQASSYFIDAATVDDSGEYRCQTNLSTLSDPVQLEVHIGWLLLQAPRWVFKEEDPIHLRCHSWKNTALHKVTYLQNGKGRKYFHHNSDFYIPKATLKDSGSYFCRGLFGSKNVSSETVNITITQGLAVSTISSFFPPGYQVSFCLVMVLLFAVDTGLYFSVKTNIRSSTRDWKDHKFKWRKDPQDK
# Sequence of human FcγRIIIa (FIG. 41 data; allotype not given) (human) (P08637 17-208): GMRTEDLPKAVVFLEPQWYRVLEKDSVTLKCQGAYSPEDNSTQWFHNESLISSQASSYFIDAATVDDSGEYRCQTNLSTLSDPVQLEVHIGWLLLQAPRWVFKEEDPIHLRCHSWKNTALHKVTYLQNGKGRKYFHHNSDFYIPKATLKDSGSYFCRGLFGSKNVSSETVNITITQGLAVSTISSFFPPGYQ
FcγRIIIa-fold [1] [fold],"ADCC EC50, DoHH-2 target cells [2] [ng/mL]","ADCC Fold WT, DoHH-2 target cells [2] [fold]","ADCC log(EC50), DoHH-2 target cells [2]",FcγRIIIa-fold:FcγRIIb-fold [1],Substance
192,,,,,"S239D/I332E Fc variant (FIG. 41 data, antibody context not told in the text)"
,3,3.3,0.49,,S239D/I332E alemtuzumab (antibody)
139,,,,18,"S239D/A330L/I332E Fc variant (FIG. 41 data, antibody context not told in the text)"
,4,,0.6,,V264I/I332E alemtuzumab (antibody)

# Source: US20070248602A1
